From patent US8258099B2, “Pin1-modulating compounds and methods of use thereof” (Max-Planck-Gesellschaft zur Foerderung der Wissenschaften …, priority 2004, dated 2012)
Like-named read-outs stand apart in the source and are kept apart here. Values belong to the molecule of their own block, whether it stands above or below them. Square brackets hold non-standard residues; d marks the D form. * marks the point of attachment. Biotin = O=C1N[C@H]2[C@H](CS[C@H]2CCCCC(=O)*)N1; d(pT) = C[C@H](OP(=O)(O)O)[C@@H](N)C(=O)O; pT = C[C@@H](OP(=O)(O)O)[C@H](N)C(=O)O; 2Nal = N[C@@H](Cc1ccc2ccccc2c1)C(=O)O; Bta = N[C@@H](Cc1csc2ccccc12)C(=O)O; Pip = O=C(O)[C@@H]1CCCCN1; Bth = benzothiophene

How the values were obtained:
[1] = molecular target: T1, interaction of MPM-2 antigens with GST-hPin1 (Homo sapiens, UniProt Q13526); assay: MPM-2 competition assay; format: binding; conditions: mitotic HeLa cell lysate, 8 μM GST-hPin1
T1 construct: made in house
Procedure: FIG. 7 depicts the influence of peptide 17 on the interaction of MPM-2 antigens with hPin1. The indicated concentration of peptide 17 or its nonphosphorylated derivative (control) was incubated with an 8 μM solution of GST-hPin1. After addition of mitotic HeLa cell lysate, GST-hPin1 was extracted from the respective mixture using glutathione sepharose. Samples were analyzed regarding extracted GST-hPin1 and coprecipitated MPM-2 antigenes by SDS PAGE and western blot analysis. Untreated lysate of mitotic HeLa cells was loaded on the first line (extract). MPM-2 antigenes were detected using the monoclonal anti MPM-2 antibody (mouse). GST-hPin1 was detected using an anti hPin1 PPIase domain antiserum (rabbit). Horseradish peroxidase-conjugated antibodies from mouse or rabbit were used as secondary antibodies. […]
1.3 mM of Peptide 17 or its nonphosphorylated derivative were incubated with GST-hPin1 (8 μM) for 2 hours at 4° C. […] Following SDS-PAGE, the samples were analyzed by western blot analysis. GST-hPin1 and coextracted MPM-2 antigens were detected using an anti hPin1 PPIase domain antiserum (rabbit) or monoclonal anti MPM-2 antibody (Upstate Biotechnology) from mouse. […]
MPM-2 antigens are mitotic phosphoproteins that are specifically recognized by the monoclonal antibody MPM-2. […] The coextracted MPM-2 antigenes were detected after SDS PAGE by western blot analysis using the anti MPM-2 antibody. […]

[2] = molecular target: hPar14 (Homo sapiens, UniProt Q9Y237); assay: Protease coupled PPIase assay, hPar14; format: biochemical; conditions: up to 50 μM
Procedure: FIG. 6 depicts the influence of peptide 17 on the hPar14 PPIase activity. The apparent first order rate constant kobs determined for the cis to trans isomerization of the arginyl-prolyl peptide bond of the substrate Suc-Ala-Arg-Pro-Phe-NH-Np (SEQ ID NO: 3) was measured using the protease coupled PPIase assay. α-Chymotrypsin was used as isomer specific protease. As control, the nonphosphorylated derivative of peptide 17 was used.
PPIase activities were monitored on a Hewlett-Packard 8452A diode array spectrophotometer according to Fischer et al., 1984 and Zhang et al., 2002. The hPar14 PPIase activity was measured with Suc-Ala-Arg-Pro-Phe-NH-Np (SEQ ID NO: 3) (final concentration 75 μM) as substrate and α-chymotrypsin (final concentration 60 μM) as isomer specific protease. PPIase activity of hCyp 18 and FKBP12 were measured using Suc-Ala-Ala-Pro-Phe-NH-Np (SEQ ID NO: 7) as substrate (final concentration 16 μM) and α-chymotrypsin (final concentration 60 μM) as isomer specific protease. PPIase activity of hPin1 was measured with Ac-Ala-Ala-Ser(PO3H2)-Pro-Arg-NH-Np (SEQ ID NO: 4) (final concentration 10 μM) as substrate and trypsin (final concentration 60 μM) as isomer specific protease. Final concentrations of the PPIases were 1.7 μM for hPar14, 4 nM for hPin1, 7 nM for FKBP12 and 9.7 nM for hCyp18. […] Measurements were monitored at 390 nm. […]

[3] = tested on: X. laevis embryos; assay: Microinjection in X. laevis embryos, cell division; format: in vivo; conditions: microinjection at stage 2
Procedure: FIG. 8 depicts the blocking of cell division by the injection of peptide 17 in X. laevis embryos. 50-300 pmol of peptide 17 or 300 pmol of its nonphosphorylated derivative (control) dissolved in 10 nl PBS buffer were microinjected in the animal half of X. laevis embryos at stage 2 of development. Embryos with large and/or apoptotic appearing cells surrounded by normally developing cells were counted after further 5 hours (stage 8-9) of development. […] Each value is the average of four independent experiments.
FIGS. 9A-F depicts phenotypic analysis of X. laevis embryos after injection of peptide 17. 300 pmol of peptide 17 or its nonphosphorylated derivative dissolved in 10 nl PBS buffer were injected in the animal half of X. laevis embryos at stage 2 of development. 1.5 hour at stage 6 (A), 2.5 hours at stage 7 (B) and 4-5 hours at stage 8-9 (C, D) after injection enlarged cells became visible. Cells that are blocked in cell division are marked with a white arrow. Controls of uninjected embryos of stage 8-9 and embryos that were injected with 300 pmol of the nonphosphorylated derivative of peptide 17 are shown in panels E and F. The site where the nonphosphorylated derivative of peptide 17 was injected is marked with a white arrow (F).
FIGS. 10A-D depict the rescue of peptide 17 caused cell division block in X. laevis embryos by hPin1 (A, B) and different hPin1 variants (C, D). FIG. 10A depicts the time course of V5-tagged hPin1 expression was analyzed by preparation of X. laevis embryo lysate 1, 2 and 4 hours after injection of 1, 2 or 3 ng of V5-tagged hPin1 mRNA. In every case, the injected volume was 10 nl. Lysates were prepared in lysis buffer containing phosphatase and protease inhibitors. Samples were separated by SDS PAGE followed by western blotting. Endogenous XlPin1 and V5-tagged hPin1 were detected using an anti hPin1 PPIase domain antiserum as primary antibody followed by incubation with a horseradish peroxidase-conjugated secondary antibody. Visualization was done using the SuperSignal® substrate. […] In every case, the whole volume of injection was 10 nl. The indicated amount of the mRNA was injected in the animal half of 30 embryos at stage 2 of development. Embryos with large and/or apoptotic appearing cells surrounded by normally developed cells were counted after additional 5 hours of development (stage 8-9). […] Each percentage of vital embryos shown in the figure is the average of four independent experiments. FIG. 10C indicates the expression of V5-tagged hPin1 variants was evaluated by preparation of embryo lysate after 4 hours of injection of the respective mRNA (2 ng) in X. laevis embryos. Lysates were prepared in lysis buffer containing phosphatase and protease inhibitors. Samples were separated using SDS PAGE followed by western blot analysis. Endogenous XlPin1 and injected V5-tagged hPin1 variants were detected using an anti hPin1 PPIase domain antiserum as primary antibody and a horseradish peroxidase-conjugated secondary antibody. Visualization was done by a chemiluminescent reaction using the SuperSignal® substrate (Pierce). FIG. 10D depicts 250 pmol of peptide 17 was coinjected with 2 ng mRNA of the indicated V5-tagged hPin1 variant (whole volume 10 nl) in the animal half of 30 X. laevis embryos at stage 2 of development. Results were analyzed as described for FIG. 10B. Each percentage of vital embryos shown in the figure is the average of four independent experiments.
Microinjection was done into the animal half of X. laevis embryos at stage 2 of development. In every case, the injection volume was 10 nl. Immunofluorescence studies of frozen X. laevis embryo sections were performed as previously described (Julius et al., 2000). Ten-micrometer cryosections of stage 8 embryos were labelled using a monoclonal anti hPin1 antibody (mouse) followed by incubation with Alexa Fluor 546™-conjugated anti mouse antibody of goat serum (Molecular Probes). […]

[4] = molecular target: T2, full-length hPin1 (human, UniProt Q13526 1-163); assay: comparison of Kd values
[5] = molecular target: T2, full-length hPin1; assay: isothermal titration calorimetry, 10 °C, full-length hPin1 in the cell
[6] = molecular target: T2, full-length hPin1; assay: method not stated there (ITC value of paragraph 223 rounded); D isomer
[7] = molecular target: T2, full-length hPin1; assay: isothermal titration calorimetry, single binding site model
[8] = molecular target: T2, full-length hPin1; assay: inhibition of PPIase activity
[9] = molecular target: T2, full-length hPin1; assay: cell-based or functional assay
[10] = molecular target: T2, full-length hPin1; assay: cell-based or functional assay; remark: listed apart in the source
[11] = molecular target: T2, full-length hPin1; assay: cell-based or functional assay; remark: listed apart in the source

T2 sequence (Q13526 whole entry): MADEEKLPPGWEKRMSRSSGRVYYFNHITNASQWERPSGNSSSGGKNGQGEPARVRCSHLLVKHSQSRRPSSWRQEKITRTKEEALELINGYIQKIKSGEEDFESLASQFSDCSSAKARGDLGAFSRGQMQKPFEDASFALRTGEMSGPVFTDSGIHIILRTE
T1 sequence (Q13526 whole entry): as above
hPar14, sequence (Q9Y237 whole entry): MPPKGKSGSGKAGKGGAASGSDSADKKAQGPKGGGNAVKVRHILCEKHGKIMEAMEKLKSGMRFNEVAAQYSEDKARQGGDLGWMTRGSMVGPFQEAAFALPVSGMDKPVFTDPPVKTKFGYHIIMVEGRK

influence on interaction of MPM-2 antigenes with GST-hPin1 [1]: had no effect
inhibition of hPar14 PPIase activity [2]: No inhibition
Molecule: nonphosphorylated derivative of peptide 17: nonphosphorylated derivative of peptide 17, used as control (Ac-F[dT][Pip][2Nal]Q-NH2) [reference compound]
effect on development of the embryos [3]: no visible effect

fold tighter binding against Ac-Phe-L-Thr(PO3H2)-Pip-Nal-Gln-NH2 [4]: 30 fold
binding enthalpy ΔHbind [5]: -4.56 kcal/mol
binding entropy TΔSbind [5]: 5.43 kcal/mol
Kd [6]: 19 nM
Ka [7]: 5.18e+07 M⁻¹
n (binding stoichiometry) [7]: 0.96
Molecule: peptide 17, Ac-Phe-D-Thr(PO3H2)-Pip-Nal-Gln-NH2

fold decrease of Ki against peptide 15 [8]: 150 fold
B1: peptide 16, Ac-Lys(N^ε-biotinoyl)-Ala-Ala-Bth-D-Thr(PO3H2)-Pip-Nal-Gln-NH2 (peptide)
peptide: Ac-K(Biotin)AA[Bta][d(pT)][Pip][2Nal]Q-NH2

IC50(µM), blockade of the PPIase activity of hPin1, protease free PPIase assay [9]: 0.21 µM
B2: peptide 15, Ac-Lys(N^ε-biotinoyl)-Ala-Ala-Bth-Thr(PO3H2)Pip-Nal-Gln-NH2 (peptide)
peptide: Ac-K(Biotin)AA[Bth][pT][Pip]AQ-NH2
modifications: not fully specified (residue 7); printed as Ac-Lys(N^ε-biotinoyl)-Ala-Ala-Bth-Thr(PO3H2)Pip-Nal-Gln-NH2

fold decrease of inhibition of hPin1 PPIase activity against peptide 15 [10]: 100 fold
IC50(µM), blockade of the PPIase activity of hPin1, protease free PPIase assay [11]: 20 µM
B3: peptide 4 (peptide)
peptide: Ac-K(Biotin)AA[Bta][pT]P[2Nal]Q-NH2
